Reference: US20050032145A1, “Methods for measuring activity of glutamine:fructose 6-phosphate amidotransferase and activity of inhibitors thereof” (priority 2002, published 2005)

Tests used:
[1] = substrate: NC(=O)CC[C@H](N)C(=O)O; assay: Substrate Km determination, Lineweaver-Burk plot (GFAT-alpha); assay type: biochemical, human; conditions: other: extracts from transfected SF9 insect cells, other substrate at saturating levels
Description: (§1) FIG. 3 illustrates the effect of varying concentrations of the substrates glutamine and fructose 6-phosphate on the enzyme activity of GFAT-alpha and GFAT-beta. FIG. 3A is a graph illustrating incubation with 10 μl glutamine 200 mM+10 μl fructose 6-phosphate 3.125, 6.25, 12.5, 25, 50, 100, and 200 mM. FIG. 3B is a graph illustrating incubation with 10 μl fructose 6-phosphate 200 mM+10 μl glutamine 3.125, 6.25, 12.5, 25, 50, 100, and 200 mM. 10 μl of GFAT-alpha and 5 μl of GFAT-beta extracts from transfected SF9 insect cells are incubated with 1) 10 μl glutamine 200 mM+10 μl fructose 6-phosphate 3.125, 6.25, 12.5, 25, 50, 100, and 200 mM, and 2) 10 μl fructose 6-phosphate 200 mM+10 μl glutamine 3.125, 6.25, 12.5, 25, 50, 100, and 200 mM in an incubation media containing 10 μl PBS 10×, 10 μl EDTA 50 mM, 10 μl, DTT 10 mM and water to 100 μl. The plate is sealed with a Costar plate sealer and incubated for 60 minutes at 37° C. by floating on a water bath. Additional incubation mixture is kept on ice to add to standard and control samples. […] After a 20-minute incubation at 37° C., the OD is determined for each well at 585 nm. […]
(§2) FIG. 3C is a table illustrating the Km values of the substrates for the GFAT-alpha and GFAT-beta enzymes calculated from the data generated in FIGS. 3A and 3B. […]

[2] = substrate: O=C(CO)[C@@H](O)[C@H](O)[C@H](O)COP(=O)(O)O; assay: as above; assay type: biochemical, human; conditions: other: extracts from transfected SF9 insect cells, other substrate at saturating levels
Description: as §1, §2

B1: GFAT-alpha (Homo sapiens; I57T) (protein)
chain: MCGIFAYLNYHVPRTRREILETLIKGLQRLEYRGYDSAGVGFDGGNDKDWEANACKTQLIKKKGKVKALDEEVHKQQDMDLDIEFDVHLGIAHTRWATHGEPSPVNSHPQRSDKNNEFIVIHNGIITNYKDLKKFLESKGYDFESETDTETIAKLVKYMYDNRESQDTSFTTLVERVIQQLEGAFALVFKSVHFPGQAVGTRRGSPLLIGVRSEHKLSTDHIPILYRTGKDKKGSCNLSRVDSTTCLFPVEEKAVEYYFASDASAVIEHTNRVIFLEDDDVAAVVDGRLSIHRIKRTAGDHPGRAVQTLQMELQQIMKGNFSSFMQKEIFEQPESVVNTMRGRVNFDDYTVNLGGLKDHIKEIQRCRRLILIACGTSYHAGVATRQVLEELTELPVMVELASDFLDRNTPVFRDDVCFFLSQSGETADTLMGLRYCKERGALTVGITNTVGSSISRETDCGVHINAGPEIGVASTKAYTSQFVSLVMFALMMCDDRISMQERRKEIMLGLKRLPDLIKEVLSMDDEIQKLATELYHQKSVLIMGRGYHYATCLEGALKIKEITYMHSEGILAGELKHGPLALVDKLMPVIMIIMRDHTYAKCQNALQQVVARQGRPVVICDKEDTETIKNTKRTIKVPHSVDCLQGILSVIPLQLLAFHLAVLRGYDVDFPRNLAKSVTVE
notes: made in house; host or cells: SF9 insect cells (sonicated, centrifuged cell extract)
[1]
  Km: 1490 µM
[2]
  Km: 1850 µM
